Target: yeast two-hybrid activation domain-Tsg101 construct (full-length Tsg101) (human) (UniProt Q99816)
Assay: cell-based or functional assay

yeast two-hybrid activation domain-Tsg101 construct (full-length Tsg101) (human), sequence (Q99816 whole entry, the tested form may be a part): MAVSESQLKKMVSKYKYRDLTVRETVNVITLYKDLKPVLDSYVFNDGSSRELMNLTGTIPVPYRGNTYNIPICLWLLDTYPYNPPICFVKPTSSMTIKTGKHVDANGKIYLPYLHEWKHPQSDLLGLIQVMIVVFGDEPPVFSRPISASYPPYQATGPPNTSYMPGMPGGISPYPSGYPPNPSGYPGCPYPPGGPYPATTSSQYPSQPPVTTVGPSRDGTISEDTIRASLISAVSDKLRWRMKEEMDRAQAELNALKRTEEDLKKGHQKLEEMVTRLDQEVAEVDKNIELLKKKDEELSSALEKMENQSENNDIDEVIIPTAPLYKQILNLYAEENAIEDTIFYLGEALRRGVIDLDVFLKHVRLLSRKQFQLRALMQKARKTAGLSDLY

Question: With “yeast two-hybrid DNA binding domain-HIV1 GAGp6 construct, wild type (from UniProt P04386 1-147; P12493 449-500)” as the substance, how does the β-galactosidase activity, two-hybrid liquid culture assay (fold over background) read?
Answer: The β-galactosidase activity, two-hybrid liquid culture assay (fold over background) was over 300.

Source: patent US7202329
